The term stoichiometry N denotes the number of molecules, sites or subunits per partner or assembly.

In paper PMC3859194 one finds stoichiometry N data, which are given here for two substances.

Assay [1] concerns the target 6His-PopZΔ172–177 (Caulobacter crescentus). The experiment in a line: SEC-MALLS.
Assay [2] deals with 6His-PopZ P146A (Caulobacter crescentus). Put plainly: SEC-MALLS.

As for 6His-PopZΔ172–177 (domain or fragment), the stoichiometry N in assay [1] was determined as 6.

In turn, 6His-PopZ P146A (natural protein) gave a stoichiometry N in assay [2] of 3.
